Assay results from PMC12873404.

Biological target: BTN2A2-His tag protein (without Fc tag) (human) (UniProt Q8WVV5)
Experiment: MST

- Kd: 63.5 nM
Substance: recombinant CD45RO-Fc protein (from UniProt P08575-4 26-1145) (Fc fusion)
